Experiment [1] addresses T1, human CD28 (human, UniProt P10747 19-220).
T1 construct: whole, on cells; also called huCD28
The experiment is described as follows: flow cytometry on Jurkat cells. The protocol:
(§1) Cells were harvested, checked for viability, and counted. 200'000 cells were incubated for 15 minutes at 4° C. with increasing concentrations of the antibodies diluted in FACS buffer (PBS 2% BSA). Cells were washed twice with cold FACS buffer and re-incubated for further 15 minutes at 4° C. with a suitable anti-human IgG secondary antibody. Cells were washed twice with cold FACS buffer and resuspended in 150 μl FACS buffer with a compatible viability marker. Binding of antibodies to living cells was measured by flow cytometry using a Cytoflex Platform (Beckman Coulter). Data was analyzed with FlowJo™ v10 software (BD Life Sciences) and dose-response binding curves were drawn using GraphPad Prism 9 software. AD84 GPC3 arm of the GPC3×CD3 bispecific antibody and P44, P30, P111 GPC3 arms of the GPC3×CD28 bispecific antibodies of this invention were selected from this screening process based on their specificity and binding signal intensity to GPC3 positive cells.
Examples of cells that can be used include GPC3 positive cell lines such as the gastric carcinoma cell line FU97 (JCRB1074), CD28 positive cell lines such as the leukemic Jurkat T cells as well as GPC3/CD28 double negative cell line, such as the leukemic TIB-153 cells. Cell staining and binding assessment was performed as described in Example 6. An irrelevant hIgG1 mAb served as negative isotype control and was used in all shown experiments for comparison. Binding data on FU97 cells (FIG. 2A) emphasizes the range of binding affinities for huGPC3 of the selected anti-GPC3 arms of the invention, P44 and P30. Both P44 and P30 arms are binding to membrane distal domains within GPC3. Binding on CD3 positive Jurkat cells highlight how these two CD28×GPC3 bispecific antibodies sharing the same anti-CD28 arm (e.g. AI3) bind similarly to CD28 positive cells (FIG. 2B).
In general terms: Flow cytometry measures light scatter and fluorescence of single cells or particles in a stream.

In experiment [2] the target is T1, human CD28. As to the kind of experiment: flow cytometry, bivalent mAb on Jurkat cells. The protocol:
as §1
The binding capacity of the anti-CD28 antibody arms of the invention, tested as bivalent mAbs, was assessed using Jurkat cells (Jurkat Clone E6-1, ATCC TIB 152) by flow cytometry. The flow cytometry methodology was the same as the one described above. AI3 and AI10 CD28 binding arms were selected from this screening process based on their specificity and binding signal intensity to CD28 positive cells.

T1 sequence (P10747 19-220): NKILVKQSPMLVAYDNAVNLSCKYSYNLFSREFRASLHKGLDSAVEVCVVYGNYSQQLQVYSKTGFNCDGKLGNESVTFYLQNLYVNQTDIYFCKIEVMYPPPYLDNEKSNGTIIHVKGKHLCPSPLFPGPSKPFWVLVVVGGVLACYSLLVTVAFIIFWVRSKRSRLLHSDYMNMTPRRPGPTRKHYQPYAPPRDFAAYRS

B1: AI3P44/N (bispecific antibody, human IgG1, kappa, lambda, L234A L235A)
heavy: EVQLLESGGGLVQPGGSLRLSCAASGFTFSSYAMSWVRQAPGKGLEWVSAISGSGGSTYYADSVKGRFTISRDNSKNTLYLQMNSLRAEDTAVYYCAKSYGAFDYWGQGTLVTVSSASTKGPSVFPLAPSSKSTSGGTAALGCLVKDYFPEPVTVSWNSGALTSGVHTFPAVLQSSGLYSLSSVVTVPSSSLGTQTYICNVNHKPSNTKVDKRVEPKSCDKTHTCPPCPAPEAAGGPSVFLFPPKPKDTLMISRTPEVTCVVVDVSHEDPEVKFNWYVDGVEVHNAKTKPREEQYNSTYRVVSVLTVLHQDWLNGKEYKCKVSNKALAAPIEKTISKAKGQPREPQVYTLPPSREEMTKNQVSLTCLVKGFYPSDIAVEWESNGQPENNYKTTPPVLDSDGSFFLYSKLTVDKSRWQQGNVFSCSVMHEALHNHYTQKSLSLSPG
light 1: not shown
light 2: NFMLTQPHSVSESPGKTVTISCTRSSGSISYDDVQWYQQRPGSSPTTVIYFNNLRPSGVPDRFSGSIDSSSNSASLTISGLKTEDEADYYCQSWDLRHRVFGGGTKLTVLGQPKAAPSVTLFPPSSEELQANKATLVCLISDFYPGAVTVAWKADSSPVKAGVETTTPSKQSNNKYAASSYLSLTPEQWKSHRSYSCQVTHEGSTVEKTVAPTECS
notes: also called GPC3×CD28 bispecific antibody; GPC3×CD28 κλ-body
As to B1, in the experiment with human CD28 [1], the binding result is recorded as “binds”.

B2: AI10P44/N (bispecific antibody, human IgG1, kappa, lambda, L234A L235A)
heavy: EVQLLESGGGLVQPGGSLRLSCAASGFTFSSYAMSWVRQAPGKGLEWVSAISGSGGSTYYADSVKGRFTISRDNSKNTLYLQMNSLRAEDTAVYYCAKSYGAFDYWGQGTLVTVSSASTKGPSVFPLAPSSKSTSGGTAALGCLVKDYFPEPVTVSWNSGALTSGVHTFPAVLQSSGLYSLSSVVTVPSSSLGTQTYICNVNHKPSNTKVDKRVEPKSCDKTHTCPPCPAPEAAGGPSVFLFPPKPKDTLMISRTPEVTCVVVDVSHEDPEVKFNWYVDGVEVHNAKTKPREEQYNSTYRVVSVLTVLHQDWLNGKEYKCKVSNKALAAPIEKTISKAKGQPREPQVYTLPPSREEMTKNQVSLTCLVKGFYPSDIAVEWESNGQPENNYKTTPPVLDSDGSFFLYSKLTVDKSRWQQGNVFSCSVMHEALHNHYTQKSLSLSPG
light 1: DIVMTQTPLSLSVTPGQPASISCKSSGDLLEFAGKTYLYWYLQKPGQPPQLLIYEVSNRFSGVPDRFSGSGSGTDFTLKISRVEAEDVGVYYCMQAHGSKIGFTFGQGTKVEIKRTVAAPSVFIFPPSDEQLKSGTASVVCLLNNFYPREAKVQWKVDNALQSGNSQESVTEQDSKDSTYSLSSTLTLSKADYEKHKVYACEVTHQGLSSPVTKSFNRGEC
light 2: B1 light 2
notes: also called AI10-containing bispecific antibody; GPC3×CD28 bispecific antibody
For B2, the binding result in the experiment with human CD28 [1] is reported as “binds”.

B3: AI10 anti-CD28 bivalent mAb (antibody, V domains shown)
VH: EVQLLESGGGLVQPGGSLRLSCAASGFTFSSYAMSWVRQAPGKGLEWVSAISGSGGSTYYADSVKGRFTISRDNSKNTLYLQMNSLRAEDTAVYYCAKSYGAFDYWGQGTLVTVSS
VL: DIVMTQTPLSLSVTPGQPASISCKSSGDLLEFAGKTYLYWYLQKPGQPPQLLIYEVSNRFSGVPDRFSGSGSGTDFTLKISRVEAEDVGVYYCMQAHGSKIGFTFGQGTKVEIK
B3: in the experiment with human CD28 [2], the binding result is reported as “binds”.

B4: AI3P30/N (bispecific antibody, human IgG1, kappa, lambda, L234A L235A)
heavy: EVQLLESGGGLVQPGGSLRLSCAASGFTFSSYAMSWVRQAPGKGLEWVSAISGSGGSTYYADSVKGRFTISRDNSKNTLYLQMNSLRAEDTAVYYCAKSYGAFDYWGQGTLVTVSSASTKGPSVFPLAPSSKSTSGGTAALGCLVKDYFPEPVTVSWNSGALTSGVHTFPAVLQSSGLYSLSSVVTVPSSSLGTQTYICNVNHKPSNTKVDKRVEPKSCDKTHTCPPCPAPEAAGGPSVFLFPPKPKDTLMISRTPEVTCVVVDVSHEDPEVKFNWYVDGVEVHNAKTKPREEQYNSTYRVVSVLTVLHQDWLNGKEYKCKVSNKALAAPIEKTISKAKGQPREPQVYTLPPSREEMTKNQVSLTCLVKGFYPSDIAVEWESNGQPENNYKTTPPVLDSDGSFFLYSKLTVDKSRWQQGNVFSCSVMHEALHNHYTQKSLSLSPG
light 1: not shown
light 2: QSALTQPASVSGSPGQSITISCTGTSSDVPEDALVSWYQQHPGKAPKLMIYYDSTRPSGVSNRFSGSKSGNTASLTISGLQAEDEADYYCSSWDFGTGSKVFGGGTKLTVLGQPKAAPSVTLFPPSSEELQANKATLVCLISDFYPGAVTVAWKADSSPVKAGVETTTPSKQSNNKYAASSYLSLTPEQWKSHRSYSCQVTHEGSTVEKTVAPTECS
notes: also called GPC3×CD28 bispecific antibody
B4: the binding result with human CD28 [1] is on record as “binds”.

Values taken from patent US20230287146A1 (LAMKAP BIO GAMMA, published 2023).
